# Legend:
# [1] = biological target: HER-2 on human mammary carcinoma cell lines MDA-MB-453, T47D and BT474 (human) (UniProt P04626); assay: 125I-HRG binding to T47D cells, 100 nM Mab
# [2] = biological target: HRG binding sites on human mammary carcinoma cell lines MDA-MB-453, T47D and BT474; assay: self-competition, 100 nM unlabeled HRG against 125I-HRG on T47D cells
# [3] = biological target: HRG binding sites on human mammary carcinoma cell lines MDA-MB-453, T47D and BT474; assay: self-competition, 100 nM unlabeled HRG against 125I-HRG on BT474 cells
# [4] = biological target: HRG binding sites on human mammary carcinoma cell lines MDA-MB-453, T47D and BT474; assay: self-competition, 100 nM unlabeled HRG against 125I-HRG on MDA-MB-453 cells
Substance,percent of 125I-HRG binding blocked [1],percent of 125I-HRG binding blocked [2],percent of 125I-HRG binding blocked [3],percent of 125I-HRG binding blocked [4]
anti-HER-2 control Mab 4D5 (antibody),48%,,,
"HRGβ1(177-244), EGF-like domain of heregulin β1 (from UniProt Q02297 177-244) (ligand)",,98%,96%,99%

# From patent publication US20020119148A1
